Data from PMC12148439.

Tests used:
[1] = target: CitAGacS649 (chimeric protein: GacS649 with its PDC domain replaced by the PDC domain of CitA from Klebsiella pneumoniae, C-terminal octa-histidine tag) (Pseudomonas aeruginosa | Klebsiella pneumoniae) (UniProt P52687); test: MST; GacS649 or CitAGacS649 labelled with AlexaFluor 488 at 80 nM, RetSHK titrated from 140 uM to 1.06 nM, 37 °C, 0.007% DDM, no citrate; apparent constants
[2] = target: GacS649 (GacS residues 1-649 with C-terminal octa-histidine tag) (Pseudomonas aeruginosa); test: as above
[3] = target: CitAGacS649 (chimeric protein: GacS649 with its PDC domain replaced by the PDC domain of CitA from Klebsiella pneumoniae, C-terminal octa-histidine tag) (Pseudomonas aeruginosa | Klebsiella pneumoniae) (UniProt P52687); test: MST; CitAGacS649 labelled with AlexaFluor 488 at 80 nM, RetSHK titrated from 140 uM to 1.06 nM, 37 °C, 0.007% DDM, with 10 mM sodium citrate

B1: RetSHK (histidine kinase region of the sensor histidine kinase RetS, residues 413-649) (domain or fragment)
chain: QTKAEFLAKISHEIRTPMNGVLGMTELLLGTPLSAKQRDYVQTIHSAGNELLTLINEILDISKLESGQIELDEVQFDLNALIEDCLDIFRVKAEQQRIELISFTQPQVPRVIGGDPTRLRQVVLSLLDNAFKQTEEGEILLVVALDDQGETPRLRIAVQDSGHPFDAKEREALLTAELHSGDFLSASKLGSHLGLIIARQLVRLMGGEFGIQSGSSQGTTLSLTLPLDPQQLENPTA
Kd [1]: 10 µM | Kd [2]: 10 µM | fold decrease in affinity with 10 mM citrate against no citrate [3]: 5 fold
